{
  "source": "paper PMC7293036",
  "tested_on": "eIF4G HEAT1 domain",
  "assay": "MST",
  "note": "pKd: −log10 of the molar value.",
  "data": [
    {"substance": "5'tiRNAAla", "values": [
      {"measurement": "pKd", "value": 6.39}
    ]}
  ]
}
